From the nanobody polyreactivity screen of Harvey et al. (2022)

Test: yeast display, Sf9 membrane polyspecificity reagent, FACS + sequencing; frameworks hold sequencing errors
Outline: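 Polyreactivity labels are assigned by the sorting gate from which each nanobody was recovered. The gates were low and high (top ~1%), set on anti-HA fluorescence for expression and streptavidin fluorescence for reagent binding. Before sorting, galactose-induced (36–48 hours) yeast display cells were stained for 1 hour at 4 °C with 10% biotinylated, detergent-solubilized Sf9 membrane reagent.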

Sequence: QVQLVESGGGLVQAGGSLRLSCAASGSTFRYYAMGWYRQAPGKERELVAAISGSGGRTYYADSVKGRFTISRDNAKNTVYLQMYSLKPEDTAVYYCNTRGRRTDYDYWGQGTQVTVSS
- polyreactivity (PSR sort gate): high polyreactivity

Sequence: QVQLVESGGGLVQAGGSLRLSCAASGSTFRYYAMGWYRQAPGKERELVAAISRSGTSTYYADSVKGRFTISRDNAKKTVYLQMNSLKPEDTAVYYCAADWHSKIGKGYDYWGQGTQVTVSS
- polyreactivity (PSR sort gate): high polyreactivity

Sequence: QVQLVESGGGLVQAGGSLRLSCAASGSTFRYYAMGWYRQAPGKERELVAAITKNGGSTYYADSVKGRFTISRDNAKNTVYLQMNSLKPEDTAVYYCADQYSYSGWYYVSYYYWGQGTQVTVSS
- polyreactivity (PSR sort gate): high polyreactivity

Sequence: QVQLVESGGGLVQAGGSLRLSCAASGSTFRYYAMGWYRQAPGKERELVAGICSGGTTKYADSVKGRFTISRDNAKNTVYLQMNSLKPEDSAVYYCAARFRRTRVTYYYWGQGTQVTVSS
- polyreactivity (PSR sort gate): high polyreactivity

Sequence: QVQLVESGGGLVQAGGSLRLSCAASGSTFRYYAMGWYRQAPGKERELVAVISTSGNTYYADSVKGRFTISRDNAKNTVYLQMNSLKPEDTAVYYCAARGVGGQISQEYDYWGQGTQVTVSS
- polyreactivity (PSR sort gate): low polyreactivity

Sequence: QVQLVESGGGLVQAGGSLRLSCAASGSTFRYYAMGWYRQAPGKEREMVAAISTSGGRTYYADSVKGRFTISRDNAKNTVYLQLNSLKPEDTAVYYCNARESRGYSYQTWKYYYWGQGTQVTVSS
- polyreactivity (PSR sort gate): high polyreactivity

Sequence: QVQLVESGGGLVQAGGSLRLSCAASGSTFRYYGMGWYRQAPGKERELVAAISTGGRTNYADSVKGRFTISRDNAKNTVYLQMNSLKPEDTAVYYCAADFLSPAYRPSWYRFDYWGQGTQVTVSS
- polyreactivity (PSR sort gate): low polyreactivity

Sequence: QVQLVESGGGLVQAGGSLRLSCAASGSTFRYYGMGWYRQAPGKERELVADITSGGTTDYADSVKGRFTISRDNAKNTVYLQMNSLKPEDTAVYYCAAGRWYKRQSTWGFGLDHDYWGQGTQVTVSS
- polyreactivity (PSR sort gate): low polyreactivity

Sequence: QVQLVESGGGLVQAGGSLRLSCAASGSTFRYYTMGWYRQAPGKEREFVASISRSGGSTYYADSVKGRFTISRDNAKNTVYLQMNSLKPEDTAVYYCNAVKGSYSRSQGNEYWGQGTQVTVSS
- polyreactivity (PSR sort gate): high polyreactivity

Sequence: QVQLVESGGGLVQAGGSLRLSCAASGSTFRYYTMGWYRQAPGKERELVAAISWSGGITYYADSVKGRFTISRDNAKNTVYLQMNSLKPEDTAVYYCAADWWAWRAYYYWGQGTQVTVSS
- polyreactivity (PSR sort gate): high polyreactivity

Sequence: QVQLVESGGGLVQAGGSLRLSCAASGSTFRYYTMGWYRQAPGKERELVAAITYSGGSTYYADSVKGRFTISRDNAKNTVYLQMNSLKPEDTAVYYCAKRWSQPKYDYWGQGTQVTVSS
- polyreactivity (PSR sort gate): high polyreactivity

Sequence: QVQLVESGGGLVQAGGSLRLSCAASGSTFRYYTMGWYRQAPGKERELVASISRSGSTSYADSVKGRFTISRDNAKNTVYLLMNSLKPEDTAVYYCARESFFGAYAGYDYWGQGTQVTVSS
- polyreactivity (PSR sort gate): low polyreactivity

Sequence: QVQLVESGGGLVQAGGSLRLSCAASGSTFSAKTIGGYRQAPGKEMELVAGITITGDTYYADSVKGRFTISRDNAKNTVYLQMNSLKPEDTAVYYCAAAWYEPATQTGYFEFDYWGQGTQVTVSS
- polyreactivity (PSR sort gate): low polyreactivity

Sequence: QVQLVESGGGLVQAGGSLRLSCAASGSTFSANAMGWYRQAPGKERELVAAITYRGGNTYYADSVKGRFTISRDNAKNTVYLQMNSLKPEETAVYYCNRDLRVRYRRLKYGYWGQGTQVTVSS
- polyreactivity (PSR sort gate): low polyreactivity

Sequence: QVQLVESGGGLVQAGGSLRLSCAASGSTFSANTMGWYRQAPGKERELVAAISSSGVGTRYADSVKGRFTISRDNAKNTVYLQMNSLKPEDTSVFYCAADYRPTVITRNDYWGQGTQVTVSS
- polyreactivity (PSR sort gate): low polyreactivity

Sequence: QVQLVESGGGLVQAGGSLRLSCAASGSTFSAYAMGWYRQAPGKERELVAAISRSGTRTYYADSVKGRFTISRDNAKNNVYLQMNSLKPEDTAVYYCARYAGRLSYRYEYWGQGTQVTVSS
- polyreactivity (PSR sort gate): high polyreactivity

Sequence: QVQLVESGGGLVQAGGSLRLSCAASGSTFSAYTMGWYRQAPGKERELVARITNGGSTYYAESVKGRFTISRDNAKNTVYLQMNSLKPEDTAVYYCAAQLGWWGSGYWGQGTQVTLSS
- polyreactivity (PSR sort gate): high polyreactivity

Sequence: QVQLVESGGGLVQAGGSLRLSCAASGSTFSDYTMGWFRQAPGKERELVAAITTIGGSTYYADSVKGRFTISRDNAKNTVYLQMNSLKPEDTAVYYCAASYYYPLEYYYWGQGTQVTVSS
- polyreactivity (PSR sort gate): low polyreactivity

Sequence: QVQLVESGGGLVQAGGSLRLSCAASGSTFSDYTMGWSRQAPGKDRVLVAALNAGGSTNYADSVKGRFTISRDNAKNTVYLQMNSLKPEDTAVYYSNADSSYLANGYWDPDYTPYDSWGQGTQVTVSS
- polyreactivity (PSR sort gate): low polyreactivity

Sequence: QVQLVESGGGLVQAGGSLRLSCAASGSTFSEYVMGWYRQAPGKERELVAAIRSNGGSTYYADSVKGRFTISRDNAKNTVYLQMNSLKPEDTAVYYCNRVYSRRTYNSPLYDYWGQGTQVTVSS
- polyreactivity (PSR sort gate): high polyreactivity

Sequence: QVQLVESGGGLVQAGGSLRLSCAASGSTFSFYAMGRYRQAPGKERELVAAISSSGDGTYYADSVKGRFTISRDNAKKTVYLQMNSLKPEDTAVYYCATGSPSGDEWGMDYWGQGTQVTVSS
- polyreactivity (PSR sort gate): low polyreactivity

Sequence: QVQLVESGGGLVQAGGSLRLSCAASGSTFSGYAMGWYRHAPGKERELVAAISRRGTSTYYADSVKGRFTISRDNAKNTVYLQMNSLKPEDTAVYYCAARPSGYVIGGYGYWGQGTQVTVSS
- polyreactivity (PSR sort gate): high polyreactivity

Sequence: QVQLVESGGGLVQAGGSLRLSCAASGSTFSGYAMGWYRQAPGKERDLVAAITKSGGRTYYADSVKGRFTISRDNAQNTVYLQMNSLKQEDTAVYYCAKAYPGTYREYDYWGQGTQVTVSS
- polyreactivity (PSR sort gate): high polyreactivity

Sequence: QVQLVESGGGLVQAGGSLRLSCAASGSTFSGYAMGWYRQAPGKERELVAAITSGGITNYADSVKGRFTISLDNAKNTLYLQMNSLKPEDTAVYYCAKSVSGIGVGYDYWGQGTQVTVSS
- polyreactivity (PSR sort gate): low polyreactivity

Sequence: QVQLVESGGGLVQAGGSLRLSCAASGSTFSGYAMGWYRQAPGKERELVGAISSSGGRTNYADSVKGRFTISRDNAKNTVYLQMNSLKPEDTAVYYCASVGPRTEYSGYRYYYWGQGTQVTVSS
- polyreactivity (PSR sort gate): high polyreactivity

Sequence: QVQLVESGGGLVQAGGSLRLSCAASGSTFSGYAMRWYRQAPGKERELVATITRRGGNTYDADSVKGGFTISRDNAKNTVYLQMNSLKPEDTAVYYCAKEGRVQSPYHYWGQGTQVTVSS
- polyreactivity (PSR sort gate): low polyreactivity

Sequence: QVQLVESGGGLVQAGGSLRLSCAASGSTFSHNAMGWYRQAPGKERELVAAISWSGGRTYADSVKGRFTISRDNAKNTVYLQMNSVKPDDTAVYYCNKVSYPSTSSSWFDYWGQGTQVTVSS
- polyreactivity (PSR sort gate): low polyreactivity

Sequence: QVQLVESGGGLVQAGGSLRLSCAASGSTFSIYAMGWSRQAPGKERELVAAITGTVGSTYYADSVKGRFTISRDNAKNTVYLQMNSLNPEDTAVYYCAARQVNYDYDYWGQGTQVTVSS
- polyreactivity (PSR sort gate): low polyreactivity

Sequence: QVQLVESGGGLVQAGGSLRLSCAASGSTFSIYARGWYRPAPGKERELVAAIRWSGGRTYYADSVKGRFTISRDNAKNTVYLQMNSLKPEDTAVYYCAAESTGSGYDYWGQGTQVTVSS
- polyreactivity (PSR sort gate): high polyreactivity

Sequence: QVQLVESGGGLVQAGGSLRLSCAASGSTFSKNGMGWYRQAPGKERELVAAITVNGGSTSYADSVKGRFTISRDNAKNTVYLQMNSLKPEDTAVYYCARRRYSKYYYWGQGTQVTVSS
- polyreactivity (PSR sort gate): high polyreactivity

Sequence: QVQLVESGGGLVQAGGSLRLSCAASGSTFSKYAMGWYRPAPGKERELVAAISSRGGSTYYADSVKGRFTISRDNAKNTVYLQMNSLKPEDTAVYYCATYYVYKLYYWGQGTQVTVSS
- polyreactivity (PSR sort gate): high polyreactivity

Sequence: QVQLVESGGGLVQAGGSLRLSCAASGSTFSLNAMGWYRQAPGKERELVAAITRSGGSTYYADSVKGRFTISRDNAKNTVYLQMNSLKPEDTAVYYCAALPRWSHRYDDWGQGTQVTVSS
- polyreactivity (PSR sort gate): high polyreactivity

Sequence: QVQLVESGGGLVQAGGSLRLSCAASGSTFSLYMGWYRQAPGKERELVAAITYSGGRTYYADSVKGRFTITLDNAKNTFYLQMNSVNPEDTAVYYCATVFNDLTVYEDWSRFDYWGQGTQVTVSS
- polyreactivity (PSR sort gate): low polyreactivity

Sequence: QVQLVESGGGLVQAGGSLRLSCAASGSTFSNNAMGWYRQAPGKERELVAAITRRGTSTYYADSVKGRFTISRDNAKNTVYLQMISLKPEDTAVYYCAAVYKLRHKRPSYGSWGQGTQVTVSS
- polyreactivity (PSR sort gate): high polyreactivity

Sequence: QVQLVESGGGLVQAGGSLRLSCAASGSTFSNNAMGWYRQAPGKERELVATISQSGGSTYYADSVKGRFTISRDNAKNTVYLQMNSLKPEDTAVYYCNAESYLTGWWYDYWGQGTQVTVSS
- polyreactivity (PSR sort gate): high polyreactivity

Sequence: QVQLVESGGGLVQAGGSLRLSCAASGSTFSNYAMGWYRQAPGKERELVAGIDWSGGSTYYADSVKGRFTISRDNAKNTVYLQMNSLKPEDTAVYYCAKRVWYHGRKLRGYYWGQGTQVTVSS
- polyreactivity (PSR sort gate): low polyreactivity

Sequence: QVQLVESGGGLVQAGGSLRLSCAASGSTFSPNDMGWYRQAPGKERELVADNSNYADSVKGRFTISRDNAKNTVYLQMNSLKPEDTAVYYCAAEWRGDRYRLYVVSWWYDYWGQGTQVTVSS
- polyreactivity (PSR sort gate): low polyreactivity

Sequence: QVQLVESGGGLVQAGGSLRLSCAASGSTFSPYAMGWYRQAPGKERELVADISWPGGTTYYADSVKGRFTISRDNAKNTVYLQMNSLKPEDTAVYYCAVTYWDYTFQITYEYWGQGSQVTVSS
- polyreactivity (PSR sort gate): low polyreactivity

Sequence: QVQLVESGGGLVQAGGSLRLSCAASGSTFSPYAMGWYRQAPGKERELVANITISGGSTYYADSVKGRFTISRDTAKNTVYLQMNSLKPEDTAVYYCNADSLIRWLFTVVILDYWGQGTLVTVSS
- polyreactivity (PSR sort gate): low polyreactivity

Sequence: QVQLVESGGGLVQAGGSLRLSCAASGSTFSPYGMGWYRQAPGKERELVAAIRGRGGNTYYADSVKGRFTISRDNAKNTVYLQMNSLKPEDTAVYYCAAQSFAQYGWRYGDWGQGTQVTVSS
- polyreactivity (PSR sort gate): high polyreactivity

Sequence: QVQLVESGGGLVQAGGSLRLSCAASGSTFSPYTMGWYRQAPGKERELVAAITWSGVTTYYADSVKGRFTISRDNAKNTVYLQMNSLKPEDSAVYYCAAGRTRRKFDYWGQGTQVTVSS
- polyreactivity (PSR sort gate): low polyreactivity

Sequence: QVQLVESGGGLVQAGGSLRLSCAASGSTFSRYAMGWYRQAPGKERELVAAISSSGGSTYYADSVKGRFTISRDNAKNTVYLQMNSLKPEDTAVYYCAVAVNGVSRIKYYYWGQGTQVTVSS
- polyreactivity (PSR sort gate): high polyreactivity

Sequence: QVQLVESGGGLVQAGGSLRLSCAASGSTFSRYAMGWYRQAPGKERELVAAISWRGGRTYYADSVKGRFTISRDNAKNTVYLPMNSLKPEDTAVYYCNAVSSFTSPRYAYWGQGTQVTVSS
- polyreactivity (PSR sort gate): high polyreactivity
